Where no end group is shown, it is not given here.
T1: endogenous Nup62 (human, UniProt P37198 2-522)
T1 construct: Detected with anti-Nup62
T1 sequence (looked up): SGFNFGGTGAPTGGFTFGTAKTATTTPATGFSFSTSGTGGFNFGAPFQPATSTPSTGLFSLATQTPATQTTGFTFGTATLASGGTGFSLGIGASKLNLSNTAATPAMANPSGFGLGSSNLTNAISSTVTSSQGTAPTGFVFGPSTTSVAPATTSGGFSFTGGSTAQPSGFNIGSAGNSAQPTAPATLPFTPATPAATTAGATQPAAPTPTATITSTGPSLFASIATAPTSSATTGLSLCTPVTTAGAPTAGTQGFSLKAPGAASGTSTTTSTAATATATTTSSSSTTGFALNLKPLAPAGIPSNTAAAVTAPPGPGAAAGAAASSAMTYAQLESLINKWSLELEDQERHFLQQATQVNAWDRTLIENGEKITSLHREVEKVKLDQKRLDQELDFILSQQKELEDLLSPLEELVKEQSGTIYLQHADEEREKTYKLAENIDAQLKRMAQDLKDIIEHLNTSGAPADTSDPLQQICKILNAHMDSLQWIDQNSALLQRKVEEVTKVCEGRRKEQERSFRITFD

T2: endogenous Nup50 (human, UniProt Q9UKX7 1-468, limits assumed)
T2 construct: Detected with anti-Nup50
T2 sequence (looked up): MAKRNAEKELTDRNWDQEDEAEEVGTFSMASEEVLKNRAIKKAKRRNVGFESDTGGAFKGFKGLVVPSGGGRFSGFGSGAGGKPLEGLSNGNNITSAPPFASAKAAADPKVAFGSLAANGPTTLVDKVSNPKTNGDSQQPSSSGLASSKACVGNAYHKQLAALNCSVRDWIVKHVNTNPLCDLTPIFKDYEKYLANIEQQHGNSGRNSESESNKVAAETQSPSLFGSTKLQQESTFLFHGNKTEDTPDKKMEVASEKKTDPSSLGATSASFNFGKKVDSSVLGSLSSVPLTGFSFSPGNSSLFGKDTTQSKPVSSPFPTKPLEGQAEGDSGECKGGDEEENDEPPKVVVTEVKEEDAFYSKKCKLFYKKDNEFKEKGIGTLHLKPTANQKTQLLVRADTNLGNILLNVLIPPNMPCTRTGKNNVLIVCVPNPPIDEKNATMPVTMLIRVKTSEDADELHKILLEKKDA

B1: GFP-KPNB1 H1-5 (receptor)
chain: GGGSGGGSGGGSMELITILEKTVSPDRLELEAAQKFLERAAVENLPTFLVELSRVLANPGNSQVARVAAGLQIKNSLTSKDPDIKAQYQQRWLAIDANARREVKNYVLQTLGTETYRPSSASQCVAGIACAEIPVNQWPELIPQLVANVTNPNSTEHMKESTLEAIGYICQDIDPEQLQDKSNEILTAIIQGMRKEEPSNNVKLAATNALLNSLEFTKANF
notes: not shown: GFP/EGFP tag (pEGFP-C1, Clontech)
B2: GFP-KPNB1 H1-7 (receptor)
chain: GGGSGGGSGGGSMELITILEKTVSPDRLELEAAQKFLERAAVENLPTFLVELSRVLANPGNSQVARVAAGLQIKNSLTSKDPDIKAQYQQRWLAIDANARREVKNYVLQTLGTETYRPSSASQCVAGIACAEIPVNQWPELIPQLVANVTNPNSTEHMKESTLEAIGYICQDIDPEQLQDKSNEILTAIIQGMRKEEPSNNVKLAATNALLNSLEFTKANFDKESERHFIMQVVCEATQCPDTRVRVAALQNLVKIMSLYYQYMETYMGPALFAITIEAMKSDIDEVALQGIEFWSNVCDEEMDLAIEASEAAEQGRPP
notes: as for B1
B3: GFP-KPNB1 H1-9 (receptor)
chain: GGGSGGGSGGGSMELITILEKTVSPDRLELEAAQKFLERAAVENLPTFLVELSRVLANPGNSQVARVAAGLQIKNSLTSKDPDIKAQYQQRWLAIDANARREVKNYVLQTLGTETYRPSSASQCVAGIACAEIPVNQWPELIPQLVANVTNPNSTEHMKESTLEAIGYICQDIDPEQLQDKSNEILTAIIQGMRKEEPSNNVKLAATNALLNSLEFTKANFDKESERHFIMQVVCEATQCPDTRVRVAALQNLVKIMSLYYQYMETYMGPALFAITIEAMKSDIDEVALQGIEFWSNVCDEEMDLAIEASEAAEQGRPPEHTSKFYAKGALQYLVPILTQTLTKQDENDDDDDWNPCKAAGVCLMLLATCCEDDIVPHVLPFIKEHIKNPDWRYRDAAVMAFGCILEGP
notes: also called N-terminal half of KPNB1 (HEAT repeats 1-9); not shown: GFP/EGFP tag (pEGFP-C1, Clontech)
B4: GFP-KPNB1 H1-4 (receptor)
chain: GGGSGGGSGGGSMELITILEKTVSPDRLELEAAQKFLERAAVENLPTFLVELSRVLANPGNSQVARVAAGLQIKNSLTSKDPDIKAQYQQRWLAIDANARREVKNYVLQTLGTETYRPSSASQCVAGIACAEIPVNQWPELIPQLVANVTNPNSTEHMKESTLEAIGYICQDIDPEQLQ
notes: as for B1
B5: GFP-KPNB1 H1 (receptor)
chain: {GFP}-GGGSGGGSGGGSMELITILEKTVSPDRLELEAAQKFLERAAVEN
modifications: also: GFP tag fused N-terminally, not in chain, (GGGS)3 linker in chain
notes: as for B1
B6: GFP-KPNB1 H1-3 (receptor)
chain: GGGSGGGSGGGSMELITILEKTVSPDRLELEAAQKFLERAAVENLPTFLVELSRVLANPGNSQVARVAAGLQIKNSLTSKDPDIKAQYQQRWLAIDANARREVKNYVLQTLGTETYRPSSASQCVAGIACAEIPVNQWP
notes: as for B1
B7: GFP-KPNB1 H1-8 (receptor)
chain: GGGSGGGSGGGSMELITILEKTVSPDRLELEAAQKFLERAAVENLPTFLVELSRVLANPGNSQVARVAAGLQIKNSLTSKDPDIKAQYQQRWLAIDANARREVKNYVLQTLGTETYRPSSASQCVAGIACAEIPVNQWPELIPQLVANVTNPNSTEHMKESTLEAIGYICQDIDPEQLQDKSNEILTAIIQGMRKEEPSNNVKLAATNALLNSLEFTKANFDKESERHFIMQVVCEATQCPDTRVRVAALQNLVKIMSLYYQYMETYMGPALFAITIEAMKSDIDEVALQGIEFWSNVCDEEMDLAIEASEAAEQGRPPEHTSKFYAKGALQYLVPILTQTLTKQDENDDDDDWNPCKAAGVCLMLLATCCED
notes: also called GFP-KPNB1 H1-8^WT; not shown: GFP/EGFP tag (pEGFP-C1, Clontech)
B8: GFP-KPNB1 H1-6 (receptor)
chain: GGGSGGGSGGGSMELITILEKTVSPDRLELEAAQKFLERAAVENLPTFLVELSRVLANPGNSQVARVAAGLQIKNSLTSKDPDIKAQYQQRWLAIDANARREVKNYVLQTLGTETYRPSSASQCVAGIACAEIPVNQWPELIPQLVANVTNPNSTEHMKESTLEAIGYICQDIDPEQLQDKSNEILTAIIQGMRKEEPSNNVKLAATNALLNSLEFTKANFDKESERHFIMQVVCEATQCPDTRVRVAALQNLVKIMSLYY
notes: as for B1
B9: GFP-KPNB1 H1-2 (receptor)
chain: GGGSGGGSGGGSMELITILEKTVSPDRLELEAAQKFLERAAVENLPTFLVELSRVLANPGNSQVARVAAGLQIKNSLTSKDPD
notes: as for B1

The binders below were run against T1, endogenous Nup62 (assay: co-IP of GFP-tagged KPNB1 truncations, western blot).
Text: (§1) FIG. 21A) Schematic domain structure of KPNB1. KPNB1 is comprised of 19 HEAT repeats (H1-19). RanGTP and importin-α interact with H1-8 and H8-19, respectively. FG-Nups bind to two regions of KPNB1, H5-7 and H14-16. FIG. 21B) Lysates from HEK293T cells expressing GFP, GFP-KPNB1 full-length (FL), N-terminal fragments of KPNB1 (H1-9 . . . H1) or the C-terminal fragment of KPNB1 (H10-19) were subjected to immunoprecipitation with GFP-Trap magnetic beads. Whole cell lysates (input) and immunoprecipitates (IP) were subjected to western blot analysis using indicated antibodies. KPNB1 H1-8, the smallest fully active KPNB1 fragment in reducing TDP-43 aggregation, strongly interacts with FG-Nups and Ran, and weakly with importin-al in comparison with full-length KPNB1. FIG. 21C) (Top) Schematic domain structure of KPNB1 H1-8^mNIS harboring four missense mutations (1178A, F217A, Y255A, I263R) in the nucleoporin-interacting site (NIS). (Bottom) Lysates from HEK293T cells expressing GFP, GFP-KPNB1 H1-8^WT or H1-8^mNIS were subjected to immunoprecipitation with GFP-Trap magnetic beads. Whole cell lysates (input) and immunoprecipitates (IP) were subjected to western blot analysis using indicated antibodies. […] Hoechst staining was used to outline nuclei. Scale bar: 5 μm. […] Statistical analysis was performed using one-way ANOVA and Bonferroni's post hoc test (**p<0.01, ***p<0.001, n=4). FIG. 21F) IF of HEK293T cells co-expressing GFP-(GR)₁₀₀ with an empty plasmid (ctrl), FLAG-tagged KPNB1 H1-8^WT or H1-8^mNIS and stained for endogenous TDP-43. Unlike KPNB1 H1-8^mNIS, KPNB1 H1-8^WT prevents the sequestration of endogenous TDP-43 in cytoplasmic GR aggregates. Arrowheads point to cytoplasmic GR aggregates. Hoechst staining was used to outline nuclei. Scale bar: 5 μm.

binding result	Binder
no binding	B1
no binding	B2
binds	B3
no binding	B4
no binding	B5
no binding	B6
binds	B7
no binding	B8
no binding	B9

What follows are binders tested against T2, endogenous Nup50 in the same assay as above.
Text: as §1

binding result	Binder
no binding	B1
no binding	B2
binds	B3
no binding	B4
no binding	B5
no binding	B6
binds	B7
no binding	B8
no binding	B9

Each binder was assayed against endogenous Ran (human, UniProt P62826 2-216) in the same assay as above.
Text: as §1

binding result	Binder
no binding	B1
no binding	B2
binds	B3
no binding	B4
no binding	B5
no binding	B6
binds	B7
no binding	B8
no binding	B9

Each binder was assayed against endogenous importin-α1 (human, UniProt P52292 2-529) in the same assay as above.
Text: as §1

binding result	Binder
no binding	B1
no binding	B2
binds	B3
no binding	B4
no binding	B5
no binding	B6
no binding	B8
no binding	B9
